Data: patent US20100233154A1, “TARGETED BINDING AGENTS DIRECTED TO HEPARANASE AND USES THEREOF 463” (MedImmune Limited, priority 2008, published 2010)

How the values were obtained:
[1] = biological target: T1, recombinant human heparanase (Homo sapiens, UniProt Q9Y251); assay: ELISA binding to directly coated recombinant human heparanase
T1 construct: Heparanase 8 and 50 kDa sub-units were cloned into pacGP67 as Sma 1-EcoR1 fragments; made in house; host or cells: Hi5 insect cells, baculovirus (pFastBac Dual)
T1 sequence (Q9Y251 158-543 limits assumed): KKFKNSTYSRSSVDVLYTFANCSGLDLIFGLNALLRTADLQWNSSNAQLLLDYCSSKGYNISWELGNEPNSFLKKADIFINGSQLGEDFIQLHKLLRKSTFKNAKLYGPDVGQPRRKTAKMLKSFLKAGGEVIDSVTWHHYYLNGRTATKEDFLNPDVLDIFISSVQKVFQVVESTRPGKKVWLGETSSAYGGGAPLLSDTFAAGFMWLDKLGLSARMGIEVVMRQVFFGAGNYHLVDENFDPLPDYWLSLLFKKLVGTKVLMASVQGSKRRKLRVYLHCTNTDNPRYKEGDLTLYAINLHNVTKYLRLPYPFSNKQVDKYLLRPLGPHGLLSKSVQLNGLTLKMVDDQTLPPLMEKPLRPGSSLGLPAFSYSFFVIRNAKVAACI
T1 sequence (Q9Y251 36-109 limits assumed): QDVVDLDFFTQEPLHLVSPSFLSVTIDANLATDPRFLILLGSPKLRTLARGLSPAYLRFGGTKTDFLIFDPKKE
Procedure: (§1) Titres of antibodies from Campaigns 1 and 2 were determined in an ELISA. Costar 3368 medium binding plates were coated directly with recombinant human heparanase or plates were coated with Rabbit anti-heparanase antibody (Raybiotech, Cat. IP-14-155) to capture recombinant heparanase. Directly coated heparanase was detected in three separate plates by mouse (InSight Cat. INS-26-1-0000), goat (Santa Cruz, Cat. sc26136) or rabbit (Raybiotech, Cat. IP-14-155) anti-heparanase antibodies, and quantified using appropriate secondary antibodies. Antibody captured heparanase was detected using mouse anti-heparanase (Insight Cat. INS-26-1-0000). At the end of the immunisation program, fusions were performed using mouse myeloma cells and lymphocytes isolated from the spleens and lymph nodes of the immunised mice by means of electroporation, as described in Example 2.
(§2) Initial screening to detect antibodies binding to human heparanase in both direct coating and antibody capture ELISAs as described above identified 800 hybridomas for further testing; 535 IgG2 from Campaign 1 and 2 and 265 IgG4 from Campaign 2. Enzyme inhibition assays and cross species binding to cynomolgus and murine heparanase, in an antibody capture ELISA, identifed 12 antibodies that were taken forward for sub-cloning to provide purified antibodies for further analysis. Subsequently, confirmation of activity against human heparanase (FIGS. 3 and 4) and inhibition of recombinant cynomolgus and murine heparanase activity in the HS-cryptate degradation assay (FIG. 5a-c), together with sequence analysis, identified 8 antibodies that are described in the table below.

[2] = biological target: T2, murine heparanase (Mus musculus, UniProt Q6YGZ1); assay: Cross species capture ELISA, murine heparanase; type: binding; conditions: min 0.06, max 0.9 OD units
T2 construct: made in house; host or cells: Hek293 cells (conditioned medium), inferred for the ELISA
T2 sequence (Q6YGZ1 28-535): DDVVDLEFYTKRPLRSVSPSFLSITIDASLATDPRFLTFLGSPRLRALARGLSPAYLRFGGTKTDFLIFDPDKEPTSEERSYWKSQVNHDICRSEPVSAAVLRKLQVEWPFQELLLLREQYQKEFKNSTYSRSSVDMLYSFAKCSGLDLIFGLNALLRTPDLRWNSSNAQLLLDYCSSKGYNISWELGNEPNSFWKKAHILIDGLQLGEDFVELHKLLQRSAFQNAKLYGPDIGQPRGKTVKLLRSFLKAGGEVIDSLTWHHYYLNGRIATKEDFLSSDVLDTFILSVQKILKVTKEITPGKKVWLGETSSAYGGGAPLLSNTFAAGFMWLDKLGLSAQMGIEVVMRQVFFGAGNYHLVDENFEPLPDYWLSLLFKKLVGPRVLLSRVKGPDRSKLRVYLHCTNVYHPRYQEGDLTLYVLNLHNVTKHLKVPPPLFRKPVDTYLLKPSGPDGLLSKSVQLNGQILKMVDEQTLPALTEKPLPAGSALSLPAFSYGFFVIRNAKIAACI
Procedure: (§3) Initially, cross species binding to human, murine and cynomolgus heparanase was determined in an ELISA assay in which heparanase was captured onto plates using a rabbit anti-heparanase antibody (Raybiotech, Cat. IP-14-155). Exhaustive supernatants were added to the plates at a final dilution of 1:5 and bound antibody detected with a rabbit anti-human IgG Fc.

[3] = tested on: MCF7-Hpa1#19 xenograft; assay: Subcutaneous xenograft tumour growth, MCF7-Hpa1#19; type: in vivo, SCID mice; conditions: once weekly i.p.; 10E9.1 at 7.5 or 15 mg per kg
Procedure: (§4) MCF7-Hpa1#19 and HCT116 tumour cells were harvested from sub-confluent cultures. A total of 5×10^6 (MCF7-Hpa1#19) or 10^7 (HCT116) tumour cells were inoculated subcutaneously into the flank of male SCID mice. HCT116 tumour cells were implanted in PBS; […] cells were implanted in PBS containing 50% matrigel.
(§5) When tumours had attained ˜200 mm^3, tumour bearing mice were randomised into treatment groups and dosed with the following; PBS; an isotype matched control IgG2 antibody, 15 mg per kg; anti-heparanase antibody 10E9.1, 7.5 or 15 mg per kg. All treatments were administered once weekly i.p. Tumour growth was measured twice per week using calipers and tumour volumes calculated according to an ellipsoid volume is formula (3.142/6×length×width×width) from measures of the largest tumour diameter and two opposing widths (FIG. 11).

[4] = tested on: cynomolgus heparanase; assay: Cross species capture ELISA, cynomolgus heparanase; type: binding; conditions: min 0.06, max 1.5 OD units
Procedure: as §3

[5] = biological target: T3, human heparanase (Homo sapiens, UniProt Q9Y251); assay: Cross species capture ELISA, human heparanase; type: binding
T3 sequence (Q9Y251 36-543): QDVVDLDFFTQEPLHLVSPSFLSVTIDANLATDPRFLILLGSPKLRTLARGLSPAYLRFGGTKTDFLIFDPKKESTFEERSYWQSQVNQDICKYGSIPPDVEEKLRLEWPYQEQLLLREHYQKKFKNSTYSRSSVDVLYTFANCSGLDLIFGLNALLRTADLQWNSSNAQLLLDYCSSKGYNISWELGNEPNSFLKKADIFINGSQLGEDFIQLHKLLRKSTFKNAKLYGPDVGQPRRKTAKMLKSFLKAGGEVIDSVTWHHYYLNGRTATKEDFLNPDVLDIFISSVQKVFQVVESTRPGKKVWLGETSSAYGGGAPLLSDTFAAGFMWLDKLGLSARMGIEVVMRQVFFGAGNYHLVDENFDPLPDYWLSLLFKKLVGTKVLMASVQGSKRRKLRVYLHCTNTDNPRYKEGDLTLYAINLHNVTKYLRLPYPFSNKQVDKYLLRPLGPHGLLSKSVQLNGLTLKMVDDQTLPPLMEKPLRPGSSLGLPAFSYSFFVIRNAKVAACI
Procedure: as §3

[6] = biological target: T4, Recombinant Hpa1 (Homo sapiens, UniProt Q9Y251); assay: Medium resolution Biacore affinity; type: binding; conditions: purified antibody captured on CM4 chip; Hpa1 1 nM and 10 nM; 25° C.
T4 construct: Heparanase 8 and 50 kDa sub-units were cloned into pacGP67 as Sma 1-EcoR1 fragments; made in house; host or cells: Hi5 insect cells, baculovirus (pFastBac Dual)
T4 sequence (Q9Y251 158-543 limits assumed): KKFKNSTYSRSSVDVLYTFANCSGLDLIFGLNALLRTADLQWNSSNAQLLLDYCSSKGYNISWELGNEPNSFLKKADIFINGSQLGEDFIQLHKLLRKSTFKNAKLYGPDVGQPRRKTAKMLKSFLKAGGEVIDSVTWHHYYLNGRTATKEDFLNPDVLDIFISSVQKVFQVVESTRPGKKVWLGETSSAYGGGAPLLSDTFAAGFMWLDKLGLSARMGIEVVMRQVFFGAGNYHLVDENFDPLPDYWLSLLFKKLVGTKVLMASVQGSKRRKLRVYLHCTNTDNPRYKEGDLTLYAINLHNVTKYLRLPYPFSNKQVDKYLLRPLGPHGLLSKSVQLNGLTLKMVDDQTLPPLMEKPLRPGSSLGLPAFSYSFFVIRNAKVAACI
T4 sequence (Q9Y251 36-109 limits assumed): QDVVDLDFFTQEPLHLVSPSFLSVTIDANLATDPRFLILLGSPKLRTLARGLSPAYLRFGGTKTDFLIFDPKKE
Procedure: For medium resolution Biacore™ tests, cloned and purified antibodies were used. Each of three purified antibodies (10E9.1, 15A1.2, and 15A11.1) were captured onto a high-density goat anti-human antibody surface over a CM4 Biacore™ chip. Recombinant Hpa1 was diluted to the desired concentration (1 nM and 10 nM) in 10 mM HEPES, 150 mM NaCl, 0.005% tween-20, 0.1 mg per ml BSA pH7.4 (25° C.) immediately prior to injection. Data were fit globally to a 1:1 interaction model with a term for mass transport included. The resulting KD values are summarised below in Table 4.

[7] = tested on: HCT116 xenograft; assay: Subcutaneous xenograft tumour growth, HCT116; type: in vivo, SCID mice; conditions: once weekly i.p.; 10E9.1 at 15 mg per kg
Procedure: as §4, §5

[8] = tested on: MDA MB231-Hpa1#4 cells; assay: Heparanase expression in cells cultured with antibody (Western blot); type: cell-based, human; conditions: 25 μg per ml antibody, 72 hrs, compared to untreated or IgG2 control
Procedure: MDA MB231-Hpa1#4 cells were cultured in the presence of 25 μg per ml anti-human heparanase antibody or control IgG2 antibody (Sigma Cat. No. 1504-1MG) for 72 hrs. Following the removal of culture medium, protein extracts were prepared from the cells in 100 μl RIPA buffer and separated on […] gels and transferred to nitrocellulose as described above. Western blots were probed with an anti-heparanase antibody that detected only pro-heparanase (SantaCruz Cat. No. SC25825).

[9] = biological target: T5, recombinant heparanase captured with rabbit anti-heparanase antibody (Homo sapiens, UniProt Q9Y251); assay: ELISA binding to antibody-captured heparanase; conditions: antibody capture
T5 construct: Heparanase 8 and 50 kDa sub-units were cloned into pacGP67 as Sma 1-EcoR1 fragments; made in house; host or cells: Hi5 insect cells, baculovirus (pFastBac Dual)
T5 sequence (Q9Y251 158-543 limits assumed): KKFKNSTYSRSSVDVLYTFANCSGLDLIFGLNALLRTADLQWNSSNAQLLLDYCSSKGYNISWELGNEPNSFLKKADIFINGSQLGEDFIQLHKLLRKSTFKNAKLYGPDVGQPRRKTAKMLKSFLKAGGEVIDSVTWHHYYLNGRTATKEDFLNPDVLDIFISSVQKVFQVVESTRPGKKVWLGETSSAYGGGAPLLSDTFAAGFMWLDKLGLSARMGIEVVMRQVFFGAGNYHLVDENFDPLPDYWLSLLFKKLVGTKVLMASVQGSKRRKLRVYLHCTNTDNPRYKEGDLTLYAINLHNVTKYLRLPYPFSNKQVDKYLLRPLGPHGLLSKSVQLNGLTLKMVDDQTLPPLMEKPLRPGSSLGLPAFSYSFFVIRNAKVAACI
T5 sequence (Q9Y251 36-109 limits assumed): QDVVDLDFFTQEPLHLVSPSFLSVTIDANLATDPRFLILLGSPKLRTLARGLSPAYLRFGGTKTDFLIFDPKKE
Procedure: as §1, §2

B1: 15A11.1: fully human anti-heparanase monoclonal antibody, G2κ; VH SEQ ID NO 10, VL SEQ ID NO 12; ATCC PTA-9490 (antibody, listed as Homo Sapiens, V domains shown)
VH: QVQLVQSGAEVKKPGASVKVSCKVSGDTLTELSMHWVRQTPGKGLEWMGGFDPEDGETIYAQKFQGRVTMTGDTSTDTAYMELSSLRSEDTAVYYCATEGDYGDSEEYYYYYGMDVWGQGTTVTVSS
VL: DIQMTQSPSSLSASVGDRVTITCRASQGISNYLAWYQQKPGKVPKLLIYAASTLQSGVPSRFSGSGSGTDFTLTISSLQPEDVATYYCQKYNRAPFTFGPGTKVDIK
notes: fully human anti-heparanase monoclonal antibody, G2κ; ATCC PTA-9490
**Q.** B1 was tested. Which “Binding to direct coated heparanase” value [1] did it give?
**A.** 0.07 OD units

**Q.** And the “Binding to heparanase Mouse” value [2]?
**A.** 0.17 OD units

**Q.** And the Tumour growth inhibition [3]?
**A.** not inhibited

**Q.** And the “Binding to heparanase Cyno” value [4]?
**A.** 0.14 OD units

**Q.** And the “Binding to heparanase Human” value [5]?
**A.** 0.21 OD units

**Q.** And the ka [6]?
**A.** 3.6e+06 M⁻¹ s⁻¹

**Q.** What about the kd [6] of the same molecule?
**A.** 0.000309 s⁻¹

**Q.** What about the Tumour growth inhibition [7] of the same molecule?
**A.** not inhibited

**Q.** What about the “Inhibition of heparanase expression” value [8] of the same molecule?
**A.** significant inhibition of heparanase expression

**Q.** What about the “Binding to captured heparanase” value [9] of the same molecule?
**A.** 0.5 OD units
